# Paper PMC6858569
# Biological target: mouse TRPV3 with the single residue substitution Y564A (mouse)
# Test: cryo-EM structure
substance,measurement,value
mouse TRPV3 with the single residue substitution Y564A (natural protein),stoichiometry N,4
